According to publication PMC8318291, “CryoEM structure of the Nipah virus nucleocapsid assembly” (PLoS Pathogens, 2021):
Several values for one entry are separate records, joined by “and”; a condition that tells them apart may be missing. Equal entries are not always repeated.

Target: the molecule itself
Assay: cryo-EM structure

B1: Nipah virus (NiV) nucleocapsid protein (natural protein)
chain: MSDIFEEAASFRSYQSKLGRDGRASAATATLTTKIRIFVPATNSPELRWELTLFALDVIRSPSAAESMKVGAAFTLISMYSERPGALIRSLLNDPDIEAVIIDVGSMVNGIPVMERRGDKAQEEMEGLMRILKTARDSSKGKTPFVDSRAYGLRITDMSTLVSAVITIEAQIWILIAKAVTAPDTAEESETRRWAKYVQQKRVNPFFALTQQWLTEMRNLLSQSLSVRKFMVEILIEVKKGGSAKGRAVEIISDIGNYVEETGMAGFFATIRFGLETRYPALALNEFQSDLNTIKSLMLLYREIGPRAPYMVLLEESIQTKFAPGGYPLLWSFAMGVATTIDRSMGALNINRGYLEPMYFRLGQKSARHHAGGIDQNMANRLGLSSDQVAELAAAVQETSAGRQESNVQAREAKFAAGGVLIGGSDQDIDEGEEPIEQSGRQSVTFKREMSISSLANSVPSSSVSTSGGTRLTNSLLNLRSRLAAKAAKEAASSNATDDPAISNRTQGESEKKNNQDLKPAQNDLDFVRADV
notes: also called N protein; nucleoprotein (N)
stoichiometry N: 13 subunits and 14 subunits
